Columns and labels:
[1] = test system: T1, Nc1ncnc2c1ncn2[C@@H]1O[C@H](COP(=O)(O)OP(=O)(O)OP(=O)(O)O)[C@@H](O)[C@H]1O; assay: RP-HPLC of cAMP, initial rates, Hill fit; format: biochemical, Catenaria anguillulae; details: ATP/Mn2+, pH 7.5, 22 °C
T1 construct: CaAC is a homodimer in the crystal
From the text: RP-HPLC of cAMP, initial rates, Hill fit on CaGC (mutant form: CaAC)

CaRhGC = assay: RP-HPLC of cGMP, initial rates, Hill fit; format: biochemical, Catenaria anguillulae; details: GTP/Mn2+, pH 7.5, 22 °C, 522 nm light 0.010 mW mm^-2, dark activity subtracted, detergent
From the text: RP-HPLC of cGMP, initial rates, Hill fit on CaRhGC

[2] = substrate: Nc1nc2c(ncn2[C@@H]2O[C@H](COP(=O)(O)OP(=O)(O)OP(=O)(O)O)[C@@H](O)[C@H]2O)c(=O)[nH]1; assay: RP-HPLC of cGMP, initial rates, Hill fit; format: biochemical, Blastocladiella emersonii; details: GTP/Mn2+, pH 7.5, 22 °C, 522 nm light 0.010 mW mm^-2, dark activity subtracted, detergent
From the text: RP-HPLC of cGMP, initial rates, Hill fit on BeRhGC

[3] = substrate: Nc1nc2c(ncn2[C@@H]2O[C@H](COP(=O)(O)OP(=O)(O)OP(=O)(O)O)[C@@H](O)[C@H]2O)c(=O)[nH]1; assay: RP-HPLC of cGMP, initial rates, Hill fit; format: biochemical, Blastocladiella emersonii; details: GTP/Mn2+, pH 7.5, 22 °C
From the text: RP-HPLC of cGMP, initial rates, Hill fit on BeGC

**Q.** “CaGC (mutant form: CaAC) (Catenaria anguillulae PL171; C201D/E132K)” was tested. Which Km [1] did it give?
**A.** The Km was 6.09 ± 1.74 mM.

**Q.** And the kcat [1]?
**A.** Its kcat is 1.012 s⁻¹.

**Q.** And the kcat/Km [1]?
**A.** Its kcat/Km is 170 M⁻¹ s⁻¹.

**Q.** `Nc1nc2c(ncn2[C@@H]2O[C@H](COP(=O)(O)OP(=O)(O)OP(=O)(O)O)[C@@H](O)[C@H]2O)c(=O)[nH]1` [GTP] was tested. Which Km (CaRhGC) did it give?
**A.** Its Km is 6.1 ± 5.59 mM.

B1: BeRhGC (Blastocladiella emersonii) (protein)
chain: MKDKDNNLRGACSSCNCPEYCFSPTSTLCDDCKCSVTKHPIVEQPLSRNGSFRSSGASLLPSPSSPNVKITSTVGLRSRKSESQANVRGSMISNSNSGSRSNNSGGAGGGSGGSSSSKGGSALANYQSAMSELWSWNMMLSTPSLKFLTVQFTTWIVLTTVGAIYTLFFHERQAYNRGWADIWYGYGAFGFGLGLSFAYMGFTGARNPEKKALSLCLLGVNFISFMSYIIIMLRLTPTIEGTMANPVEPARYLEWIATCPVLILLISEITQYPHDPYKVIVNDYALCLAGFVGAISAQQPWGDLAHFVSCLCFSYVVYSLWSCFTGAIDGETQCNVEKSGLRWIRFSTITTWSLFPITWFSYTSGLISFTVAEAGFSMIDIGAKVFLTLVLVNSTVEQAQNQKVDAITAIAEELENQINNCDAILQKMMPEGVLEQLKNGQATEAKEYESVTVFFSDITNFTVISSRTSTKDMMATLNKLWLEYDAIAKRWGVYKVETIGDAYLGVTGAPDVVPDHAERACNFAVDIIEMIKSFKTITGESINIRIGLNSGPVTAGVLGDLNPHWCLVGDTVNTASRMESTSKAGHIHISESTYHFIKSKFVTQPLDVMEVKGKGKMQTYWVLGRK
**Q.** Which Km [2] does the source give for B1 here?
**A.** Its Km is 0.92 ± 0.27 mM.

**Q.** And the kcat [2]?
**A.** The kcat was 1.07 s⁻¹.

**Q.** And the kcat/Km [2]?
**A.** The kcat/Km was 1200 M⁻¹ s⁻¹.

B2: BeGC (Blastocladiella emersonii) (protein)
chain: TEAKEYESVTVFFSDITNFTVISSRTSTKDMMATLNKLWLEYDAIAKRWGVYKVETIGDAYLGVTGAPDVVPDHAERACNFAVDIIEMIKSFKTITGESINIRIGLNSGPVTAGVLGDLNPHWCLVGDTVNTASRMESTSKAGHIHISESTYHFIKSKFVTQPLDVMEVKGKGKMQTYWVLGRK
**Q.** Which results are given for B2?
**A.** Km [3]: 2.16 ± 0.30 mM; kcat [3]: 0.339 s⁻¹; kcat/Km [3]: 160 M⁻¹ s⁻¹

From PMC5967339, “Rhodopsin-cyclases for photocontrol of cGMP/cAMP and 2.3 Å structure of the adenylyl cyclase domain” (Nature Communications, 2018)
